Target: cdk5_mouse Cdk5 (UniProt P49615)

Sequence of Cyclin-dependent kinase 5 activator 1 (Mus musculus), P61809 L289A (P61809 whole entry L289A): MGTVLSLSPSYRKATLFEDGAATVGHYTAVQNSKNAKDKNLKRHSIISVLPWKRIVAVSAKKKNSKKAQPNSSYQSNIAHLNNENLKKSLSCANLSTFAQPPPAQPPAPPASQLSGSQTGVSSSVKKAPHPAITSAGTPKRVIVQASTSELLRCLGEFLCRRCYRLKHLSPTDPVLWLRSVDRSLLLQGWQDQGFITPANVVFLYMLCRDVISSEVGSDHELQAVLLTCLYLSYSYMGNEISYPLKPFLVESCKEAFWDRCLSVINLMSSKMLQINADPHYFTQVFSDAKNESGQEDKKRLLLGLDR
Sequence of Cyclin-dependent kinase 5 activator 1 (Mus musculus), P61809 D288A (P61809 whole entry D288A): as the sequence (P61809 whole entry L289A) above, with D288A, A289L counted along it

Row | Substance | effect of a mutation on the interaction
1 | Cyclin-dependent kinase 5 activator 1 (Mus musculus), P61809 D288A | disrupting interaction
2 | Cyclin-dependent kinase 5 activator 1 (Mus musculus), P61809 L289A | disrupting interaction
